In patent US20160252497A1 (NGM BIOPHARMACEUTICALS, published 2016):

What was measured:
[1] = target: T1, KLB (Klotho-beta), as used in the Biacore assay; assay: Biacore (data not shown)
T1 construct: The form of KLB in the assay is not described; also called Klotho-β

[2] = target: T2, Fc fusion protein of the extracellular domain (ECD) of FGFR4; assay: Biacore SPR, ligand flowed over chip coated with FGFR4 ECD-Fc, steady state fit
T2 construct: extracellular domain; Immobilized on Biacore flow cells; also called FGFR4-Fc chimeric protein; FGFR4-Fc
T2 sequence (P22455 22-369): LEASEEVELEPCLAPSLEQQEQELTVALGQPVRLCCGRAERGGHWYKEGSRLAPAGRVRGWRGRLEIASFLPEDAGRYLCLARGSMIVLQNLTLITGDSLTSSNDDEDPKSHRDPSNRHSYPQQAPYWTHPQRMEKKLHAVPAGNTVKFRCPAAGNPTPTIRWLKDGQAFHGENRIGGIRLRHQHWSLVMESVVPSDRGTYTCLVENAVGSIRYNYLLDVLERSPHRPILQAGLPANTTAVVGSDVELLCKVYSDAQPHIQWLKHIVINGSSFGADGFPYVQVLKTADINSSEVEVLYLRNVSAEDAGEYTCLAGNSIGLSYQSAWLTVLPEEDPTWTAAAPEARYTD
From the text: FIGS. 9A-9G depicts M70 binding and activation of FGFR4 in vitro. (A) Biacore SPR assay of the interaction between FGF19 and FGFR4-Fc chimeric proteins immobilized on flow cells. […] (B) Binding of M70 to FGFR4 by Biacore. Similar procedures to (A) were used. (C) Solid phase binding of M70 or FGF19 to FGFR4-KLB receptor complex. The bound ligands were detected using a biotinylated FGF19-specific polyclonal antibody. (D) Relative luciferase activity after stimulation with M70 or FGF19 in L6 cells transiently transfected with FGFR4 in the presence or absence of KLB. (E) M70 induces ERK phosphorylation in Hep3B cells. (F) M70 repressed Cyp7a1 expression in primary hepatocytes of mouse, rat, and human origin. Relative expression of Cyp7a1 mRNA in hepatocytes were determined by qRT-PCR and normalized to 18S RNA (mouse and rat) or actin (human) mRNA levels. (G) Repression of hepatic Cyp7a1 expression by M70 in mice. 12-week-old db/db mice were injected intraperitoneally with recombinant M70 or FGF19 protein. Mice were euthanized 4 hours after dosing and hepatic Cyp7a1 expression was evaluated by qRT-PCR and normalized to 18S RNA expression. Dose response curves of Cyp7a1 repression in mice were shown. All values represent mean±SEM.
To elucidate the molecular mechanism that underline M70's inability to induce liver tumors, the interaction of M70 to the known receptor complex of FGF19 was assessed. […]

[3] = target: FGFR4-KLB receptor complex (solid phase binding assay); assay: solid phase binding assay on the FGFR4-KLB receptor complex; bound ligand detected with a biotinylated FGF19-specific polyclonal antibody, absorbance at 450 nm
Sequence of FGFR4-KLB receptor complex (solid phase binding assay) (chain, as listed by the source, chain 1 of 2): as the sequence (P22455 22-369) above
Sequence of FGFR4-KLB receptor complex (solid phase binding assay) (chain, as listed by the source, chain 2 of 2): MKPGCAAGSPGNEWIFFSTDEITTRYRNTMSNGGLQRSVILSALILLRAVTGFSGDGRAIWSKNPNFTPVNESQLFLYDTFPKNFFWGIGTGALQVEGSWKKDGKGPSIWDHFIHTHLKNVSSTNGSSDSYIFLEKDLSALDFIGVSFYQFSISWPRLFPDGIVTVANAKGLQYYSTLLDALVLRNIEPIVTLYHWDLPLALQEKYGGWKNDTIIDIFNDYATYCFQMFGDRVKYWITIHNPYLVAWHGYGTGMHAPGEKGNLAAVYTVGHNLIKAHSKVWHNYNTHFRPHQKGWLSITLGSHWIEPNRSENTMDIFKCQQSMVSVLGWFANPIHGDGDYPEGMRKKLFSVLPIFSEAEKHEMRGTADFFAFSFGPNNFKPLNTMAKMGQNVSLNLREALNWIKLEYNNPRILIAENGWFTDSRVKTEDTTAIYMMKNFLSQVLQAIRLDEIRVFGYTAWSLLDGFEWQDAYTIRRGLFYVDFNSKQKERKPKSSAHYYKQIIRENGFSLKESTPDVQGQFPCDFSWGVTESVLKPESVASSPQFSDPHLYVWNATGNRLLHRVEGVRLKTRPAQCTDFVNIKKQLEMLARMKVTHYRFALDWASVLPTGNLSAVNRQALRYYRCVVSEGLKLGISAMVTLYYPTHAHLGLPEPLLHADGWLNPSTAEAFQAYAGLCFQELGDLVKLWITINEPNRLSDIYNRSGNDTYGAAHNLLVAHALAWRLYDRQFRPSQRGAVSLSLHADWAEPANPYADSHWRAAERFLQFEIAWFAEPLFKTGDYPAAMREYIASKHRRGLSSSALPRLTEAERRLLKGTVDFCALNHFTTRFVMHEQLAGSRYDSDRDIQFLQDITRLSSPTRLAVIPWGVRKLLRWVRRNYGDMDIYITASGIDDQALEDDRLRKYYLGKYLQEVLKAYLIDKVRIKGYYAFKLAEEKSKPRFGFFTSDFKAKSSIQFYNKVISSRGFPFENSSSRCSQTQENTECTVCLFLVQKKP
From the text: (B) Binding of M70 to FGFR4 by Biacore. Similar procedures to (A) were used. (C) Solid phase binding of M70 or FGF19 to FGFR4-KLB receptor complex. The bound ligands were detected using a biotinylated FGF19-specific polyclonal antibody. (D) Relative luciferase activity after stimulation with M70 or FGF19 in L6 cells transiently transfected with FGFR4 in the presence or absence of KLB. (E) M70 induces ERK phosphorylation in Hep3B cells. (F) M70 repressed Cyp7a1 expression in primary hepatocytes of mouse, rat, and human origin. Relative expression of Cyp7a1 mRNA in hepatocytes were determined by qRT-PCR and normalized to 18S RNA (mouse and rat) or actin (human) mRNA levels. (G) Repression of hepatic Cyp7a1 expression by M70 in mice. 12-week-old db/db mice were injected intraperitoneally with recombinant M70 or FGF19 protein. Mice were euthanized 4 hours after dosing and hepatic Cyp7a1 expression was evaluated by qRT-PCR and normalized to 18S RNA expression. Dose response curves of Cyp7a1 repression in mice were shown. All values represent mean±SEM.
To elucidate the molecular mechanism that underline M70's inability to induce liver tumors, the interaction of M70 to the known receptor complex of FGF19 was assessed. Surface plasmon resonance (SPR) analysis was used to measure direct binding of M70 or FGF19 to FGFR4. […]

[4] = target: Human FGFR4 and KLB expressed endogenously on Hep3B cells (human, UniProt P22455 22-802; Q86Z14 1-1044); assay: cell-based or functional assay
Sequence of Human FGFR4 and KLB expressed endogenously on Hep3B cells (P22455 22-802, chain 1 of 2): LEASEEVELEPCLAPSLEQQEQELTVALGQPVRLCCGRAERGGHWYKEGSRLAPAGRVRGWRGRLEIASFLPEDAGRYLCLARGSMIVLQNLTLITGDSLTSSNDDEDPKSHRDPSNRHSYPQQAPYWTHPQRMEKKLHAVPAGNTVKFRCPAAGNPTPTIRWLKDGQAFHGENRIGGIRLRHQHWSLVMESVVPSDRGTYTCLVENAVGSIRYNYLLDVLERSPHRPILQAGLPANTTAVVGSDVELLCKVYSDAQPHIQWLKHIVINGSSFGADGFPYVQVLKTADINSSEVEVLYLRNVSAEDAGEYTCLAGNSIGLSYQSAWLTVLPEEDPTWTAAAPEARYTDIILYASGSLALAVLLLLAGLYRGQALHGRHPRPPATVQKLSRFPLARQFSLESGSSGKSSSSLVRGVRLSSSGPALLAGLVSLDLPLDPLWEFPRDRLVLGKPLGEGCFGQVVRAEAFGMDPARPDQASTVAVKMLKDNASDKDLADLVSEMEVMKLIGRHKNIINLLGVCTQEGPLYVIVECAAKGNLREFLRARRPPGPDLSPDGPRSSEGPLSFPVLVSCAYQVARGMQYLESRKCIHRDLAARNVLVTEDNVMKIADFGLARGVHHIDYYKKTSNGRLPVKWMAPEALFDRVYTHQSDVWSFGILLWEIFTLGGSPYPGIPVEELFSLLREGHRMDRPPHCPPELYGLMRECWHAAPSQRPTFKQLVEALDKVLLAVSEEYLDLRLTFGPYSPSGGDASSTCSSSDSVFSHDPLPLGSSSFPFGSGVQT
Sequence of Human FGFR4 and KLB expressed endogenously on Hep3B cells (Q86Z14 whole entry, chain 2 of 2): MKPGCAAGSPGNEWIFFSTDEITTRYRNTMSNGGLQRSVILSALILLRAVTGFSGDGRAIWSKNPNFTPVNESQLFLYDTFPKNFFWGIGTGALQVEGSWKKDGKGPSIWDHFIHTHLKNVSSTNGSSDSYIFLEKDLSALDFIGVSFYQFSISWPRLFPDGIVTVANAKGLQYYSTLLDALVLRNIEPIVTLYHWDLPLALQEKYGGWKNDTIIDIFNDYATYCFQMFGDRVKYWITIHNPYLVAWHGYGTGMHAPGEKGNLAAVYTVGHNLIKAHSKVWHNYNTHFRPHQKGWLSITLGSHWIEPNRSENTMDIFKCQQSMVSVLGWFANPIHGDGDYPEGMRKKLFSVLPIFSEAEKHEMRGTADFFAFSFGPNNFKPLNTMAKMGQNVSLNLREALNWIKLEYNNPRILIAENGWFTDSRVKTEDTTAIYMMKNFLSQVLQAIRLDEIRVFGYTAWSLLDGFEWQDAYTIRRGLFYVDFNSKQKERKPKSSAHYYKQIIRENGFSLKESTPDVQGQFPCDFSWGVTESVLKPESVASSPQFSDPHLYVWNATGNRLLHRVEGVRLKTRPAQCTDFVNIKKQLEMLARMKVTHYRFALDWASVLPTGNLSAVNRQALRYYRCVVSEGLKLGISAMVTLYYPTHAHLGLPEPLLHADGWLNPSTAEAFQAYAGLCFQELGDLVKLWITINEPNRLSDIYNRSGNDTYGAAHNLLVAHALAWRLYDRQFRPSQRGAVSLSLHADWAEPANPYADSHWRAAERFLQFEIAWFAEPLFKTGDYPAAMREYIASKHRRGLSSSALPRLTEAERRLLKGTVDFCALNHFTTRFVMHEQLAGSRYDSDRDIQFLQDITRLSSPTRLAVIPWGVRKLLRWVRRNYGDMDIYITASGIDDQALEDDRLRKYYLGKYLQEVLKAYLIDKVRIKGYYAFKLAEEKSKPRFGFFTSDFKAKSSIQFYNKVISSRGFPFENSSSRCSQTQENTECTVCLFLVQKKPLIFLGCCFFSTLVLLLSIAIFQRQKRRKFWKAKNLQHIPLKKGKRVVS

[5] = target: T3, Mouse FGFR4 on cells (L6 cells transfected with FGFR4 alone; primary mouse hepatocytes) (mouse, UniProt Q03142 17-799); assay: cell-based or functional assay
T3 sequence (looked up): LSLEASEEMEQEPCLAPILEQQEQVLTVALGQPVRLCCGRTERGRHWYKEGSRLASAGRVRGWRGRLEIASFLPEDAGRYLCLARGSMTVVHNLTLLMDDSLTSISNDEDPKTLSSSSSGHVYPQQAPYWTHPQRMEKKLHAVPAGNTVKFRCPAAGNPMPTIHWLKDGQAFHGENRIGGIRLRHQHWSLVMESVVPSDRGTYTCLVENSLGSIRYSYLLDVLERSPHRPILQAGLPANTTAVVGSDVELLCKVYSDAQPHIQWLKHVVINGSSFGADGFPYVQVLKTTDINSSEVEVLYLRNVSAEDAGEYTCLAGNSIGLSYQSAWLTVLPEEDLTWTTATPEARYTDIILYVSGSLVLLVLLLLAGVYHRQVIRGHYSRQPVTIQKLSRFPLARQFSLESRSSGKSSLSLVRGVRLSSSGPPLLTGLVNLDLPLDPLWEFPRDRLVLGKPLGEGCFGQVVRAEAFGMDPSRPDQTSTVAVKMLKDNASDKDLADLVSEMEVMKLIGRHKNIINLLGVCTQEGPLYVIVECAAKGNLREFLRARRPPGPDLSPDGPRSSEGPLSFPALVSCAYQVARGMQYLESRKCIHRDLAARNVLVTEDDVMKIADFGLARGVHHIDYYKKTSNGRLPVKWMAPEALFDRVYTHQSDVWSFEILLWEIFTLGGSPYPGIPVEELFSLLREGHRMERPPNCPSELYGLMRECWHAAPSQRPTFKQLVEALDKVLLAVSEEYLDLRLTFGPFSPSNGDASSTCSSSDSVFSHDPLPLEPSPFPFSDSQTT

[6] = target: Mouse FGFR4 and mouse KLB co-expressed on rat L6 cells (mouse, UniProt Q03142 17-799; Q99N32 1-1043); assay: cell-based or functional assay
Sequence of Mouse FGFR4 and mouse KLB co-expressed on rat L6 cells (Q99N32 whole entry, one chain of several): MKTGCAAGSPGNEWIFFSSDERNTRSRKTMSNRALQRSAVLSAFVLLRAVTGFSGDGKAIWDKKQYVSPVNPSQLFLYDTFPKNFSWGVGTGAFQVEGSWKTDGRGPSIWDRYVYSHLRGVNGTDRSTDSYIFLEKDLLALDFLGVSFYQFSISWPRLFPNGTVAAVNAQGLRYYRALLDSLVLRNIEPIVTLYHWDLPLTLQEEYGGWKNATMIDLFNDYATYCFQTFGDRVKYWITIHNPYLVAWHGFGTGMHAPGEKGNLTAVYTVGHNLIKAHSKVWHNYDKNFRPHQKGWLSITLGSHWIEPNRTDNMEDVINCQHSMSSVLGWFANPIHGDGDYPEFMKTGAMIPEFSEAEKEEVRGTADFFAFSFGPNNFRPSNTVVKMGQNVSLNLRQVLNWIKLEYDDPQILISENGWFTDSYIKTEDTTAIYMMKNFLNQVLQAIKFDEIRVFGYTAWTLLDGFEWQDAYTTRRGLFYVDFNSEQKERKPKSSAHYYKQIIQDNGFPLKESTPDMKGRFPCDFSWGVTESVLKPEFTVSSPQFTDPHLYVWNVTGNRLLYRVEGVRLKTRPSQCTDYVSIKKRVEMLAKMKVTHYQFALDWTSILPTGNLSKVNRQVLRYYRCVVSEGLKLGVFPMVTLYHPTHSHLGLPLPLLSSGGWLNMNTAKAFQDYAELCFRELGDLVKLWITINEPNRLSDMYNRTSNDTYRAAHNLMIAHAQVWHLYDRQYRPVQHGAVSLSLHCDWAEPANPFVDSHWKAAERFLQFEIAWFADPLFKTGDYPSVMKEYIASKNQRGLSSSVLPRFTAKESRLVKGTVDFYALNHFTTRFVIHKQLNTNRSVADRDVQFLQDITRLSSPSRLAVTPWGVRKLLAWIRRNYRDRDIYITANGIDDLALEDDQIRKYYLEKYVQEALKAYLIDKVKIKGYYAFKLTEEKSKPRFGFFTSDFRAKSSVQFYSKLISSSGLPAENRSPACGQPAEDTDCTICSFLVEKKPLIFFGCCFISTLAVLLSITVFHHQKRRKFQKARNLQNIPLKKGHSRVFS

[7] = target: Rat FGFR4 on primary rat hepatocytes (rat, UniProt Q498D6 17-800); assay: cell-based or functional assay
Sequence of Rat FGFR4 on primary rat hepatocytes (Q498D6 17-800): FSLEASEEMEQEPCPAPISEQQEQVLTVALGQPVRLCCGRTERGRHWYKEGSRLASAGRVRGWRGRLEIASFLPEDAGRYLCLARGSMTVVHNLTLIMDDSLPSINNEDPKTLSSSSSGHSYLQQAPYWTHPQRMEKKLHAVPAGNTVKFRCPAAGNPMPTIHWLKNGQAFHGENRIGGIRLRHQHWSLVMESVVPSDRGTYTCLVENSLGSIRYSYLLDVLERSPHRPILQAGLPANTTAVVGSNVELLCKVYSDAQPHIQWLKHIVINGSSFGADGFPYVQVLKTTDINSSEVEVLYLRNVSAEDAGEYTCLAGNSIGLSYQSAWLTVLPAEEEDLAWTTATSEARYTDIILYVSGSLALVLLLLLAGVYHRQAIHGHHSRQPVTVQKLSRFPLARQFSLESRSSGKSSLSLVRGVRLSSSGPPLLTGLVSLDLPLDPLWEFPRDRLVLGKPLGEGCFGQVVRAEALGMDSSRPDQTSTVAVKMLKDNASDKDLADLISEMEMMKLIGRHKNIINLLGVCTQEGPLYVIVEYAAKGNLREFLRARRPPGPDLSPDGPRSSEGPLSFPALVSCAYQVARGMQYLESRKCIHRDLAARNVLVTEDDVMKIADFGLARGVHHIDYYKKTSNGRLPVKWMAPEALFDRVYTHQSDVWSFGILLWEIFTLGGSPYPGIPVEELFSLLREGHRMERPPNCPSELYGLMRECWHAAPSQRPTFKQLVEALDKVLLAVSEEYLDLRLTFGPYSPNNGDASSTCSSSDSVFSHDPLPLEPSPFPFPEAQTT

[8] = target: Human FGFR4 on primary human hepatocytes (human, UniProt P22455 22-802); assay: cell-based or functional assay
Sequence of Human FGFR4 on primary human hepatocytes (P22455 22-802): as the sequence (P22455 22-802, chain 1 of 2) above

B1: M70 (FGF19 variant carrying 3 amino acid substitutions A30S, G31S, H33L and a 5-amino acid deletion) (ligand)
chain: MRDSSPLVHYGWGDPIRLRHLYTSGPHGLSSCFLRIRADGVVDCARGQSAHSLLEIKAVALRTVAIKGVHSVRYLCMGADGKMQGLLQYSEEDCAFEEEIRPDGYNVYRSEKHRLPVSLSSAKQRQLYKNRGFLPLSHFLPMLPMVPEEPEDLRGHLESDMFSSPLETDSMDPFGLVTGLEAVRSPSFEK
notes: Engineered variant of human FGF19; also called FGF19 variant M70; recombinant M70 protein
What does the source list for B1?
Kd [1]: 0.0241 nM; Kd [2]: 134 nM; EC50 (read off the curve) [3]: ~2 nM; phosphorylation and activation of ERK in Hep3B cells (EC50) [4]: 0.38 nM; GAL-Elk1 luciferase reporter activity in L6 cells transfected with FGFR4 alone (reduction in potency against FGFR4 plus KLB) [5]: 500 fold; repression of Cyp7a1 expression in primary mouse hepatocytes (IC50) [5]: 0.64 pM; GAL-Elk1 luciferase reporter activity in L6 cells co-expressing FGFR4 and KLB (EC50) [6]: 38 pM; repression of Cyp7a1 expression in primary rat hepatocytes (IC50) [7]: 0.49 pM; repression of Cyp7a1 expression in primary human hepatocytes (IC50) [8]: 6.8 pM
